This test deals with microtubule (MT) filaments.

Here are results for 1 substance from publication PMC4453223.

DmK-4AA, sequence (P17210 other isoform, or with tags, fused parts or gaps): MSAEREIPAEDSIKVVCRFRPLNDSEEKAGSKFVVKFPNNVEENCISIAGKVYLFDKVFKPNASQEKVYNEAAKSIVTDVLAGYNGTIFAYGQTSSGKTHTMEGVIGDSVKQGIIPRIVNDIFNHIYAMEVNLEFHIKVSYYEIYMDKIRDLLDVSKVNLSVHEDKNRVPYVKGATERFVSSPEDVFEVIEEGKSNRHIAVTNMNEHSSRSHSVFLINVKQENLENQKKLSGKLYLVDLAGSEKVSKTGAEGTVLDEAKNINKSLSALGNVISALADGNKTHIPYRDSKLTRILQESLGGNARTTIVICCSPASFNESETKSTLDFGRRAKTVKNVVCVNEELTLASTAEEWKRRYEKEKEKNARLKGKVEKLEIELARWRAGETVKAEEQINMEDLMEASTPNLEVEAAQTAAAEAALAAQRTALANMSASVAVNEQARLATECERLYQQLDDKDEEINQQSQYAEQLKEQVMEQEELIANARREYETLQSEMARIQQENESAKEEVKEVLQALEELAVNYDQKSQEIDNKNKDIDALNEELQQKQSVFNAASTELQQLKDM

The substance “DmK-4AA (from UniProt P17210 1-559) (domain or fragment)” yielded a half-site mantADP release (stopped flow): share of motors releasing mantADP from both heads upon the addition of MTs of 16%.
